Measured values reported in article PMC4802042.
Blank lines part the entries; values can stand above or below the binder they belong to.

Experiments:
[1] = molecular target: double-phosphorylated JNK1 (phospho-JNK1) (human)
[2] = molecular target: double-phosphorylated JNK1 (phospho-JNK1) (human); remark: listed apart in the source

phosphatase activity for JNK1 dephosphorylation, relative to wild-type MKP7-CD (Fig. 4a) [1]: 10 fold
B1: MKP7-CD (F285A) (domain or fragment)
chain: NIGPTRILPNLYLGCQRDVLNKELMQQNGIGYVLNASNTCPKPDFIPESHFLRVPVNDSFCEKILPWLDKSVDFIEKAKASNGCVLVHCLAGISRSATIAIAYIMKRMDMSLDEAYRFVKEKRPTISPNANFLGQLLDYEKKIKNQ

Km of MKP5-CD for pJNK1 substrate, relative to that of MKP7-CD [2]: 20 fold
B2: MKP5 catalytic domain (MKP5-CD, residues 320-467) (domain or fragment)
chain: AELTPILPFLFLGNEQDAQDLDTMQRLNIGYVINVTTHLPLYHYEKGLFNYKRLPATDSNKQNLRQYFEEAFEFIEEAHQCGKGLLIHCQAGVSRSATIVIAYLMKHTRMTMTDAYKFVKGKRPIISPNLNFMGQLLEFEEDLNNGVT
